Like-named read-outs stand apart in the source and are kept apart here.
T1: Notch1^EGF33-NRR (mouse, UniProt Q01705 1267-1717)
T1 sequence: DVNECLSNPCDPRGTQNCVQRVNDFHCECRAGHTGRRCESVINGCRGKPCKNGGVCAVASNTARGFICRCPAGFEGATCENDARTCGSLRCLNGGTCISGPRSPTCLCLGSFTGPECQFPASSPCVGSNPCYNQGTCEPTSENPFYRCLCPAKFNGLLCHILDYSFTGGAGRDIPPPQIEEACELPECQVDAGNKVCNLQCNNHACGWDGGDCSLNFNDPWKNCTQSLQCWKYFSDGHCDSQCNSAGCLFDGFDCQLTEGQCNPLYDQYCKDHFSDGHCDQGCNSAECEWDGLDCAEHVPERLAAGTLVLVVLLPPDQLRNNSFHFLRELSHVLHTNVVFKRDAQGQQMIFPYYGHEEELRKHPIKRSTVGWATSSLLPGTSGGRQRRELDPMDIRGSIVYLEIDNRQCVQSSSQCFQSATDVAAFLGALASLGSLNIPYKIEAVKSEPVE

B1: Jagged1^EGF8-11,Fc (Fc-tagged, covalently dimerized) (Fc fusion)
chain: DIDECASNPCLNGGHCQNEINRFQCLCPTGFSGNLCQLDIDYCEPNPCQNGAQCYNRASDYFCKCPEDYEGKNCSHLKDHCRTTTCEVIDSCTVAMASNDTPEGVRYISSNVCGPHGKCKSQSGGKFTCDCNKGFTGTYCHENINDCESNPCKNGGTCIDGVNSYKCICSDGWEGAHCE
B2: Jagged1^CRD,Fc (Fc-tagged, covalently dimerized) (Fc fusion)
chain: EVSGRSCITMGRVILDGAKWDDDCNTCQCLNGRVACSKVWCGPRPCRLHKSHNECPSGQSCIPVLDDQCFVRPCTGVGECRSSSLQPVKTKCTSDSYYQDNCANITFTFNKEMMSPGLTTEHICSELRNLNILKNVSAEYSIYIACEPSLSANNEIHVAISAEDIRDDGNPVKEITDKIIDLVSKRDGNSSLIAAVAEVRVQRRPLKNRTD
B3: Notch1^EGF8-13, C-terminally biotinylated SPR ligand (domain or fragment)
chain: EDVDECQLMPNACQNGGTCHNTHGGYNCVCVNGWTGEDCSENIDDCASAACFQGATCHDRVASFYCECPHGRTGLLCHLNDACISNPCNEGSNCDTNPVNGKAICTCPSGYTGPACSQDVDECALGANPCEHAGKCLNTLGSFECQCLQGYTGPRCEIDVNECISNPCQNDATCLDQIGEFQCICMPGYEGVYCEINTDECASSPCLHNGHCMDKINEFQCQCPKGFNGHLCQ
modifications: biotin on the C-terminal biotin acceptor peptide
B4: Jagged1 full ectodomain, wild type (Jagged1^fe,wt) (domain or fragment)
chain: ASGQFELEILSMQNVNGELQNGNCCGGVRNPGDRKCTRDECDTYFKVCLKEYQSRVTAGGPCSFGSGSTPVIGGNTFNLKASRGNDRNRIVLPFSFAWPRSYTLLVEAWDSSNDTIQPDSIIEKASHSGMINPSRQWQTLKQNTGIAHFEYQIRVTCDDHYYGFGCNKFCRPRDDFFGHYACDQNGNKTCMEGWMGPDCNKAICRQGCSPKHGSCKLPGDCRCQYGWQGLYCDKCIPHPGCVHGTCNEPWQCLCETNWGGQLCDKDLNYCGTHQPCLNRGTCSNTGPDKYQCSCPEGYSGPNCEIAEHACLSDPCHNRGSCKETSSGFECECSPGWTGPTCSTNIDDCSPNNCSHGGTCQDLVNGFKCVCPPQWTGKTCQLDANECEAKPCVNARSCKNLIASYYCDCLPGWMGQNCDININDCLGQCQNDASCRDLVNGYRCICPPGYAGDHCERDIDECASNPCLNGGHCQNEINRFQCLCPTGFSGNLCQLDIDYCEPNPCQNGAQCYNRASDYFCKCPEDYEGKNCSHLKDHCRTTTCEVIDSCTVAMASNDTPEGVRYISSNVCGPHGKCKSQSGGKFTCDCNKGFTGTYCHENINDCESNPCKNGGTCIDGVNSYKCICSDGWEGAHCENNINDCSQNPCHYGGTCRDLVNDFYCDCKNGWKGKTCHSRDSQCDEATCNNGGTCYDEVDTFKCMCPGGWEGTTCNIARNSSCLPNPCHNGGTCVVNGDSFTCVCKEGWEGPICTQNTNDCSPHPCYNSGTCVDGDNWYRCECAPGFAGPDCRININECQSSPCAFGATCVDEINGYQCICPPGHSGAKCHEVSGRSCITMGRVILDGAKWDDDCNTCQCLNGRVACSKVWCGPRPCRLHKSHNECPSGQSCIPVLDDQCFVRPCTGVGECRSSSLQPVKTKCTSDSYYQDNCANITFTFNKEMMSPGLTTEHICSELRNLNILKNVSAEYSIYIACEPSLSANNEIHVAISAEDIRDDGNPVKEITDKIIDLVSKRDGNSSLIAAVAEVRVQRRPLKNRTD
B5: Notch1 full ectodomain (Notch1^fe), mouse (domain or fragment)
chain: ARGLRCSQPSGTCLNGGRCEVANGTEACVCSGAFVGQRCQDSNPCLSTPCKNAGTCHVVDHGGTVDYACSCPLGFSGPLCLTPLDNACLANPCRNGGTCDLLTLTEYKCRCPPGWSGKSCQQADPCASNPCANGGQCLPFESSYICRCPPGFHGPTCRQDVNECSQNPGLCRHGGTCHNEIGSYRCACRATHTGPHCELPYVPCSPSPCQNGGTCRPTGDTTHECACLPGFAGQNCEENVDDCPGNNCKNGGACVDGVNTYNCRCPPEWTGQYCTEDVDECQLMPNACQNGGTCHNTHGGYNCVCVNGWTGEDCSENIDDCASAACFQGATCHDRVASFYCECPHGRTGLLCHLNDACISNPCNEGSNCDTNPVNGKAICTCPSGYTGPACSQDVDECALGANPCEHAGKCLNTLGSFECQCLQGYTGPRCEIDVNECISNPCQNDATCLDQIGEFQCICMPGYEGVYCEINTDECASSPCLHNGHCMDKINEFQCQCPKGFNGHLCQYDVDECASTPCKNGAKCLDGPNTYTCVCTEGYTGTHCEVDIDECDPDPCHYGSCKDGVATFTCLCQPGYTGHHCETNINECHSQPCRHGGTCQDRDNSYLCLCLKGTTGPNCEINLDDCASNPCDSGTCLDKIDGYECACEPGYTGSMCNVNIDECAGSPCHNGGTCEDGIAGFTCRCPEGYHDPTCLSEVNECNSNPCIHGACRDGLNGYKCDCAPGWSGTNCDINNNECESNPCVNGGTCKDMTSGYVCTCREGFSGPNCQTNINECASNPCLNQGTCIDDVAGYKCNCPLPYTGATCEVVLAPCATSPCKNSGVCKESEDYESFSCVCPTGWQGQTCEVDINECVKSPCRHGASCQNTNGSYRCLCQAGYTGRNCESDIDDCRPNPCHNGGSCTDGINTAFCDCLPGFQGAFCEEDINECASNPCQNGANCTDCVDSYTCTCPVGFNGIHCENNTPDCTESSCFNGGTCVDGINSFTCLCPPGFTGSYCQYDVNECDSRPCLHGGTCQDSYGTYKCTCPQGYTGLNCQNLVRWCDSAPCKNGGRCWQTNTQYHCECRSGWTGVNCDVLSVSCEVAAQKRGIDVTLLCQHGGLCVDEGDKHYCHCQAGYTGSYCEDEVDECSPNPCQNGATCTDYLGGFSCKCVAGYHGSNCSEEINECLSQPCQNGGTCIDLTNSYKCSCPRGTQGVHCEINVDDCHPPLDPASRSPKCFNNGTCVDQVGGYTCTCPPGFVGERCEGDVNECLSNPCDPRGTQNCVQRVNDFHCECRAGHTGRRCESVINGCRGKPCKNGGVCAVASNTARGFICRCPAGFEGATCENDARTCGSLRCLNGGTCISGPRSPTCLCLGSFTGPECQFPASSPCVGSNPCYNQGTCEPTSENPFYRCLCPAKFNGLLCHILDYSFTGGAGRDIPPPQIEEACELPECQVDAGNKVCNLQCNNHACGWDGGDCSLNFNDPWKNCTQSLQCWKYFSDGHCDSQCNSAGCLFDGFDCQLTEGQCNPLYDQYCKDHFSDGHCDQGCNSAECEWDGLDCAEHVPERLAAGTLVLVVLLPPDQLRNNSFHFLRELSHVLHTNVVFKRDAQGQQMIFPYYGHEEELRKHPIKRSTVGWATSSLLPGTSGGRQRRELDPMDIRGSIVYLEIDNRQCVQSSSQCFQSATDVAAFLGALASLGSLNIPYKIEAVKSEPVE
B6: Notch1 negative regulatory region (Notch1^NRR) (domain or fragment)
chain: EEACELPECQVDAGNKVCNLQCNNHACGWDGGDCSLNFNDPWKNCTQSLQCWKYFSDGHCDSQCNSAGCLFDGFDCQLTEGQCNPLYDQYCKDHFSDGHCDQGCNSAECEWDGLDCAEHVPERLAAGTLVLVVLLPPDQLRNNSFHFLRELSHVLHTNVVFKRDAQGQQMIFPYYGHEEELRKHPIKRSTVGWATSSLLPGTSGGRQRRELDPMDIRGSIVYLEIDNRQCVQSSSQCFQSATDVAAFLGALASLGSLNIPYKIEAVKSEPVE
B7: Notch1^NRRΔloop (domain or fragment)
chain: EEACELPECQVDAGNKVCNLQCNNHACGWDGGDCSLNFNDPWKNCTQSLQCWKYFSDGHCDSQCNSAGCLFDGFDCQLTEGQCNPLYDQYCKDHFSDGHCDQGCNSAECEWDGLDCAEHVPERLAAGTLVLVVLLPPDQLRNNSFHFLRELSHVLHTNVVFKRDAQGQQMIFPYYGDIRGSIVYLEIDNRQCVQSSSQCFQSATDVAAFLGALASLGSLNIPYKIEAVKSEPVE
B8: Jagged1^C2-EGF3,wt, C-terminally biotinylated SPR ligand (domain or fragment)
chain: ASGQFELEILSMQNVNGELQNGNCCGGVRNPGDRKCTRDECDTYFKVCLKEYQSRVTAGGPCSFGSGSTPVIGGNTFNLKASRGNDRNRIVLPFSFAWPRSYTLLVEAWDSSNDTIQPDSIIEKASHSGMINPSRQWQTLKQNTGIAHFEYQIRVTCDDHYYGFGCNKFCRPRDDFFGHYACDQNGNKTCMEGWMGPDCNKAICRQGCSPKHGSCKLPGDCRCQYGWQGLYCDKCIPHPGCVHGTCNEPWQCLCETNWGGQLCDKDLNYCGTHQPCLNRGTCSNTGPDKYQCSCPEGYSGPNCE
modifications: biotin on the C-terminal biotin acceptor peptide

Experiments:
[1] = target: Jagged1^C2-EGF3,HA (mouse) (UniProt Q9QXX0); assay: MST
[2] = target: B8; assay: SPR
[3] = target: Notch1^EGF33-NRR, C-terminally biotinylated SPR ligand (mouse) (UniProt Q01705); assay: SPR
Notch1^EGF33-NRR = target: T1, Notch1^EGF33-NRR; assay: SPR
[4] = target: B5; assay: cross-linking
cross-linking = target: the molecule itself; assay: cross-linking
SEC-MALS = target: the molecule itself; assay: SEC-MALS
[5] = target: B8; assay: SPR; remark: listed apart in the source

Notch1^EGF33-NRR (from UniProt Q01705 1267-1717) (domain or fragment)
Kd [1]: 500 nM

B1
Kd [2]: 340 nM | Kd [3]: 290 nM

B2
Kd [2]: 930 nM | Kd [3]: 290 nM

B3
Kd (Notch1^EGF33-NRR): 115 µM

B4
binding result [4]: binds

B5
binding result (cross-linking): binds

B6
stoichiometry N (SEC-MALS): 2

B7
Kd [5]: ~1000 nM

B8
binding result (Notch1^EGF33-NRR): binds
